T1: Human ABCG2 (breast cancer resistance protein), wild type, N-terminal Flag tag, reconstituted in nanodiscs (human), Q9UNQ0
T1 chain: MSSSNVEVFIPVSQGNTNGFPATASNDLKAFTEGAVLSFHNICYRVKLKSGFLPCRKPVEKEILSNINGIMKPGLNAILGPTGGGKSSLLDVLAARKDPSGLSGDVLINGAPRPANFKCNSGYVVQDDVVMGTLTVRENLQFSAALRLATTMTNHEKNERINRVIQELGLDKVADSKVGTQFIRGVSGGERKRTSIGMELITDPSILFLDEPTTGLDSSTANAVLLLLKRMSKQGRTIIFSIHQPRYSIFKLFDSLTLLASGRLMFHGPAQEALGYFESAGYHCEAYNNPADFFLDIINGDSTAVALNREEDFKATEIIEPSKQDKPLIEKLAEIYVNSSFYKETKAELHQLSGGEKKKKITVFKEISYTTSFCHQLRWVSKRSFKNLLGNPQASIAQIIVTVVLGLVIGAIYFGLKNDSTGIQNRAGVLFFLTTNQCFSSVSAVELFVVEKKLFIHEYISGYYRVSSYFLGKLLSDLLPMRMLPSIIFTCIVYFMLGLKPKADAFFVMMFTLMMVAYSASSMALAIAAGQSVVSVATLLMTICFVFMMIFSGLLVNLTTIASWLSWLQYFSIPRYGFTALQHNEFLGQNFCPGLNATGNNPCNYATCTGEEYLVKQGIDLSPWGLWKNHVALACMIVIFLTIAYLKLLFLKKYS

B1: Fab fragment of the ABCG2-specific monoclonal antibody 5D3 (Fab, V domains shown)
VH: QVQLQESGPGLVKPSQSLSLTCTVTGFSITSDYAWNWIRQFPGKKLEWMGYINFDGGTTYNPSLRGRISITRDTSKNQFFLQLRSVTPEDTATYYCATFYGAKGTLDYWGQGTSVTVSS
VL: DIVLTQSPSSFSVSLGDRVTISCKASGYILNRLAWYQQKPGNAPRLLISGATSLETGFPSRFSGTGSGKDYTLSISSLQTEDVGTYYCQQYWSTPWTFGGGTKLEIR
B2: Human ABCG2 (breast cancer resistance protein), wild type, N-terminal Flag tag, reconstituted in nanodiscs, Q9UNQ0 1-655 (natural protein)
chain: T1 chain

Key:
[1] = molecular target: Human ABCG2 (breast cancer resistance protein), wild type, N-terminal Flag tag, reconstituted in nanodiscs (human, UniProt Q9UNQ0); assay: cryo-EM structure
[2] = molecular target: T1, Human ABCG2 (breast cancer resistance …); assay: cryo-EM structure; conditions: remark: other sources report otherwise

binding result [1] | stoichiometry N [2] | Binder
binds | – | B1
– | 2 | B2

Source: publication doi:10.1101/2021.02.18.431786 (bioRxiv, 2021)
